According to publication PMC11480844:

B1: H2-Kb / F5 (parent)
chain 1: GDSVTQTEGLVTLTEGLPVMLNCTYQSTYSPFLFWYVQHLNEAPKLLLKSFTDNKRPEHQGFHATLHKSSSSFHLQKSSAQLSDSALYYCALSPSNMGYKLTFGTGTSLLVDP
chain 2: EAAVTQSPRNKVAVTGGKVTLSCNQTNNHNNMYWYRQDTGHGLRLIHYSYGAGSTEKGDIPDGYKASRPSQENFSLILELATPSQTSVYFCASGDASEQYFGPGTRLTVL
chain 3: not shown
chain 4: IQKTPQIQVYSRHPPENGKPNILNCYVTQFHPPHIEIQMLKNGKKIPKVEMSDMSFSKDWSFYILAHTEFTPTETDTYACRVKHDSMAEPKTVYWDRDM
chain 5: SIINFEKL
B2: H2-Kb / B6 (parent)
chain 1: GDSVTQTEGLVTVTEGLPVKLNCTYQTTYLTIAFFWYVQYLNEAPQVLLKSSTDNKRTEHQGFHATLHKSSSSFHLQKSSAQLSDSALYYCALSLGNAGAKLTFGGGTRLTVRP
chain 2: EAAVTQSPRNKVTVTGGNVTLSCRQTNSHNYMYWYRQDTGHGLRLIHYSYGAGNLQIGDVPDGYKATRTTQEDFFLLLELASPSQTSLYFCASSDGMISSSYEQYFGPGTRLTVL
chain 3: not shown
chain 4: B1 chain 4
chain 5: SIINFEKL

Variants of: B1
Test: % of reporter cells activated (NFAT-GFP), raw
Details: with F5; scale: % of reporter cells activated
Further: test concentration or dose not given here.

Ratio to parent: each site, then its substitutions
chain 5 N4: S 0.303; V 0.322; F 0.509; M 0.431; I 0.315; P 0.36; K 0.184; R 0.191; H 0.36; Y 0.307; W 0.438; T 0.337; Q 0.15; E 0.21; A 0.262
chain 5 E6: W 0.318; L 0.341; Y 0.296; S 0.303; A 0.318; R 0.453; G 0.281; F 0.292; D 0.371; H 0.27; P 0.21; K 0.337
chain 5 F5: Y 0.502; G 0.296; V 1.15; H 0.659; A 0.921; M 1.51; T 1.2; W 1.55; C 1.48; D 0.273; K 0.247
chain 5 S1: H 0.337; I 0.262; M 0.281; Y 0.337; C 0.296; P 0.315; L 0.375; E 0.33; W 0.292; V 0.307
chain 5 I2: E 0.558; V 1.23; W 1.57; L 3.22; G 0.989; D 0.652; A 0.603; H 0.378; T 1.03; K 0.397
chain 5 K7: F 2.64; H 0.61; Y 0.423; P 0.322; A 0.903; N 0.386; V 2.14; I 2.55
chain 5 L8: Q 0.288; W 0.292; K 0.633; H 1.55; T 0.453; R 0.345; F 0.247; N 0.21; M 0.427; S 1.39; C 2.82; E 0.285; V 0.521; D 1.91; P 0.352
chain 5 I3: F 0.3; N 0.251; K 0.345; V 0.487; L 0.547; R 0.161; D 0.255; W 0.243; Q 0.464; P 0.427; Y 0.3; T 0.356; M 0.255

Variants of: B2
Test: % of reporter cells activated (NFAT-GFP), raw
Parameters: unit not given here
Details: with B6

Ratio to parent of substitutions, site by site:
chain 5 I2: N 1.2; A 1.13; K 1.08; T 1.23; L 1.08; Y 1.07; H 1.15; C 1.18; D 1.07; W 0.926; Q 0.886; F 1.01; E 0.879; S 0.987; R 0.765; P 1.16; G 0.966; V 0.987; M 0.98
chain 5 I3: T 1.16; G 1.01; S 1.15; R 0.678; L 1.11; Q 1.06; C 1.07; F 1.43; D 1.01; H 1.01; M 1.13; N 0.913; A 1.17; E 1.03; P 1.11; K 0.98
chain 5 F5: A 1.15; C 1.47; Q 1.07; D 1.25; V 1.09; H 1.28; I 1.09; Y 1.28; T 0.993; R 0.765; M 1; K 1.28; G 1.17; S 0.98; N 0.966; W 1.15; E 1.74; P 0.973; L 1.08
chain 5 E6: R 0.711; V 0.51; H 0.919; K 0.872; T 0.859; Y 0.685; W 0.758; A 1.21; D 0.792; N 1.07; F 0.792; L 0.866; S 0.852; C 0.879; M 0.946; I 0.55; Q 0.872; G 0.664; P 1
